The source of these data is article PMC9481538, “The interaction between LC8 and LCA5 reveals a novel oligomerization function of LC8 in the ciliary-centrosome system” (Scientific Reports, 2022).

Series [1] can be described thus: negative staining transmission electron microscopy of sLCA5-LC8 complexes. The class given is physicochemical. As to the method:
For TEM negative staining experiments, a JEOL JEM-1011 (JEOL Ltd., Tokyo, Japan) electron microscope was used. The purified LCA5-LC8 complexes or LC8 or LCA5 forms alone were put together by using LCA5-WT or the single or double mutants at 30 μM and LC8 at 150 μM concentration in a buffer of 20 mM Tris 70 mM NaCl, pH 7.4, and incubated at 37 °C for 1 h. The complexes were diluted to a final 0.2 mg/ml concentration in the buffer and applied to 300 mesh formvar/carbon-coated copper grids (SPI Inc., USA). After 2 min of incubation the surplus was removed by filter paper and 1% uranyl acetate was applied for 1 min as negative staining. Images were taken around the middle of the grid at 5000, 50,000, 150,000 and 300,000-fold magnification. The collected data was analyzed by Fiji ImageJ software, and the statistical analysis was carried out in Origin 8 software.

In series [2] the test system is GST-fused LC8. The experiment in a line: GST pull-down of LC8 and sLCA5. The settings on record: GST-LC8 bait, MBP-, 6x-His-fused sLCA5 prey, PBS, 1 mM DTT, room temperature; result in words. Type of series: binding. The method, then:
For the pull-down experiments, GST-fused LC8 was used as bait, and MBP-, 6x-His-fused LCA5 variants as prey. For controls, GST and MBP were used. Proteins were expressed in 100 ml cultures of E. coli BL21 (DE3) Rosetta cells as described above. Cells were harvested, resuspended in 5 ml PBS supplemented with 1 mg/ml lysozyme and 1 mM DTT, sonicated and clarified by centrifugation. 20 μl of Glutathione Sepharose 4B (Macherey–Nagel) (75%) resin was used for each experiment. Baits were incubated with the resin for 1 h at room temperature, then washed with PBS supplemented with 1 mM DTT. Prey proteins were added and incubated for one hour. The beads were washed and eluted by boiling in a 2 × SDS sample buffer and analyzed in tricine SDS page according to the protocol of Schagger et al[43].

A short description of series [3]: CD spectroscopy, helical content. Type of series: physicochemical. As to the method:
CD experiments were carried out on a Jasco J-810 spectropolarimeter using a 1 mm quartz cuvette. For the spectra of the individual constructs, 8 scans were recorded and averaged between 200 nm or 190 nm and 260 nm (in continuous scanning mode, data pitch: 0.2 nm, scanning speed: 50 nm/min, response: 2 s, bandwidth: 2 nm). sLCA5-WT and the mutants were measured at 0.1 mg/ml concentration. 1.2 μM LCA5 and 6 μM LC8 were complexed and analyzed. The spectra of LC8 at a concentration of 6 μM was recorded under the same experimental conditions as described before and subtracted from the individual CD spectra of the sLCA5-LC8 complexes. The baseline subtracted data were evaluated using the BeStSel web-server (http://bestsel.elte.hu/index.php)[46],[47]. Thermal denaturation experiments were recorded at 222 nm between 10 and 80 °C using 1 °C/min heating rate. The thermal denaturation profile was fitted according to the Gibbs–Helmholtz equation assuming a two-state model as described by Shih et al[48]. After fitting, the curves were normalized by the following equation. y=-m^∘-An-T∗mn/Ad-An+md-mnT-1 where y is the ratio of native and unfolded state, An and Ad are the initial values of the Gibbs–Helmholtz equation belong to the native and denatured state, mn and md are the slopes belong to the An and Ad values, m° is the measured CD value in millidegree and T is the temperature in °C. […]

A short description of series [4]: CD thermal denaturation. The class given is physicochemical. The settings on record: CD at 222 nm, 10–80 °C; for melting temperature Tm: 1 °C/min, two-state fit, without or with LC8 as label shows; for increase in melting temperature on LC8 binding: sLCA5 in complex with LC8 vs without. As to the method: CD experiments were carried out on a Jasco J-810 spectropolarimeter using a 1 mm quartz cuvette. For the spectra of the individual constructs, 8 scans were recorded and averaged between 200 nm or 190 nm and 260 nm (in continuous scanning mode, data pitch: 0.2 nm, scanning speed: 50 nm/min, response: 2 s, bandwidth: 2 nm). sLCA5-WT and the mutants were measured at 0.1 mg/ml concentration. 1.2 μM LCA5 and 6 μM LC8 were complexed and analyzed. The spectra of LC8 at a concentration of 6 μM was recorded under the same experimental conditions as described before and subtracted from the individual CD spectra of the sLCA5-LC8 complexes. The baseline subtracted data were evaluated using the BeStSel web-server (http://bestsel.elte.hu/index.php)[46],[47]. Thermal denaturation experiments were recorded at 222 nm between 10 and 80 °C using 1 °C/min heating rate. The thermal denaturation profile was fitted according to the Gibbs–Helmholtz equation assuming a two-state model as described by Shih et al[48]. After fitting, the curves were normalized by the following equation. y=-m^∘-An-T∗mn/Ad-An+md-mnT-1 where y is the ratio of native and unfolded state, An and Ad are the initial values of the Gibbs–Helmholtz equation belong to the native and denatured state, mn and md are the slopes belong to the An and Ad values, m° is the measured CD value in millidegree and T is the temperature in °C.

A short description of series [5]: analytical gel filtration. Type of series: physicochemical. As to the method: (§1) For analytical gel filtration a Superose 6 Increase 10/300 (Cytiva) was used with an effective resolution between 5–5000 kDa range and a void volume above 5000 kDa. The column was equilibrated in DPBS supplemented with 200 μM TCEP. The calibration curve was fitted on the chromatogram of gel filtration standard mix (BioRad) with the addition of Dextran Blue to determine the void volume. 100 μl of LCA5 purified protein or LCA5-LC8 complex was injected at the concentration of 30 μM for LCA5 and 150 μM for LC8, with a flow rate of 500 μl/min immediately or after 60 min of incubation at 37 °C. For densitometric analysis, fractions were collected and 200 μl of samples were precipitated in 1.8 ml 96% ethanol at − 80 °C for 2 h. The samples were centrifugated for 30 min at 14,000 g, and dissolved in 15 μl of SDS sample buffer. 10 μl of each sample was run on Tricine-SDS gel. The calibration of the densitometry was performed on samples of known molar ratio of sLCA5 construct and LC8 (see the original gel used for calibration on Suplementary Fig. S16). Data evaluation was performed by using Origin 8 software and Fiji ImageJ software.
On the technique in general: SEC sorts molecules by how far they enter the pores of the column.

For series [6], the target named is T1, LC8 (Homo sapiens, UniProt Q96FJ2).
T1 construct: 6xHis (N); made in house; host or cells: E. coli BL21 (DE3) Rosetta
T1 sequence (Q96FJ2 whole entry): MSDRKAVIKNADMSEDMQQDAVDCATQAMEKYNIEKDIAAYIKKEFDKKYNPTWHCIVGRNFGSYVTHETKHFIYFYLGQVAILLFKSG
In words: composition of complexes of LC8 binding partners (Supplementary Table S1). The settings on record: this paper's constructs. An excerpt:
Number of LC8 Number of Ratio of LCA5
LC8 binding monomeric binding monomeric LC8 in monomers to LC8
Gene name sites partners in complex complex monomers
Supplementary Table S1. Stoichiometries of various LC8 binding partners in complex with LC8. Known LC8 binding partners according to literature data always form dimers upon LC8 binding. The stoichiometry is basically 1:1 in case of one LC8 binding site,where 2 monomeric partners are dimerized by binding one dimeric LC8. This ratio could increase up to 1:11 in case of ASCIZ where the dimeric ASCIZ possibly could bind 11 LC8 dimers in […]
occupied. According to our ITC and CD spectroscopy data, we proposed a very different binding model where the LCA5 forms likely […] alone and LC8 could interconnect this dimerized, moreover the possible binding sites are not fully occupied. […]
and 1:1 ratio case of single mutant LCA5 construct where one binding site presented and in case of wild type LCA5 where 2 binding sites presented, respectively.

The target of series [7] is T1, LC8. In words: isothermal titration calorimetry, sLCA5 fragments titrated with LC8. Type of series: binding. The settings on record: PBS pH 7.4, 1 mM TCEP, 37 °C. The method, then:
LC8 and MBP-fused LCA5 constructs were prepared in PBS supplemented with 1 mM TCEP. Before measurement, protein samples were dialyzed overnight in PBS pH 7.4 (Orange Scientific, OrDial D14 membrane). Peptides were diluted from stock with the buffer used for dialysis. The concentration of samples was determined based on absorbance at 280 nm in the case of proteins, and 205 nm for the peptide. Experiments were performed using MicroCal PEAQ-ITC (Malvern Panalytical), LCA5 peptides were measured at 25 °C, proteins were analyzed at 37 °C. Lebercilin peptide was injected into the cell 18 times 2 μl volumes, with 5 min timing between injections. In case of the protein, LCA5 was placed in the sample cell, and LC8 was injected during 37 injections, 1 μl each. The results were evaluated using MicroCal PEAQ-ITC Analysis Software.

The target of series [8] is T1, LC8. The experiment in a line: SDS-PAGE densitometric analysis of gel filtration fractions (sLCA5:LC8 molar ratio). The class given is binding. The settings on record: SDS-PAGE densitometry; result in words. As to the method: as §1

B1: sLCA5-WT: truncated LCA5 96–430 fused to an N-terminal MBP tag (protein)
chain: DTDLVTKRILSARLLKINELQNEVSELQVKLAELLKENKSLKRLQYRQEKALNKFEDAENEISQLIFRHNNEITALKERLRKSQEKERATEKRVKDTESELFRTKFSLQKLKEISEARHLPERDDLAKKLVSAELKLDDTERRIKELSKNLELSTNSFQRQLLAERKRAYEAHDENKVLQKEVQRLYHKLKEKERELDIKNIYSNRLPKSSPNKEKELALRKNAACQSDFADLCTKGVQTMEDFKPEEYPLTPETIMCYENKWEEPGHLTLDLQSQKQDRHGEAGILNPIMEREEKFVTDEELHVVKQEVEKLEDEWEREELDKKQKEKASLLER
modifications: left off: MBP, N-terminal, kept | His6, C-terminal, kept
notes: truncated LCA5 96–430 fused to an N-terminal MBP tag
With B1, the “measured diameter median of spherical complexes” value in series [1] (30 μM sLCA5 + 150 μM LC8, 37 °C 1 h, 20 mM Tris 70 mM NaCl pH 7.4) is ~ 39 nm. Besides, in series [1] (TEM diameters with LC8, significant by two sample t-test, p = 0.05), the “increase in size of complexes vs sLCA5-ΔCQS complexes” value turned out to be 20%. Besides, the “interaction with LC8 (GST pull-down)” value in series [2] is recorded as “can bind LC8”. Further, the “molar ellipticity curve upon addition of LC8” value in series [3] (20 °C, LC8 in fivefold molar excess, vs sLCA5-WT without LC8, result in words) is recorded as “remained the same”. Besides, in series [3] (CD, BeStSel, 20 vs 40 °C, in the presence of LC8, LC8 and MBP-tag subtracted), the “helical structures preserved at higher temperatures” value was found to be 80%. Moreover, in series [4], the “melting temperature Tm” value was 41,1 °C and the “increase in melting temperature on LC8 binding” value is ~ 5 °C. Moreover, the “estimated molar mass (gel filtration)” value in series [5] (Superose 6 Increase 10/300, DPBS, 200 μM TCEP, void volume above 5000 kDa, listed as wild-type LCA5 construct) is on record as ~ 610 kDa. Besides, the “void fraction (higher order oligomers)” value in series [5] (gel filtration void volume, result in words) is recorded as “remarkable increase in the void volume fraction”. The “increase of the difference between incubated wild type and sLCA5-ΔCQS complexes” value in series [5] (void fraction, prolonged incubation with LC8) is given as ~ 3.5 fold. For the same molecule, the “stronger propensity to form higher order oligomers vs sLCA5-ΔCQS” value in series [5] (void volume fraction size, with LC8 in fivefold molar excess) is recorded as ~ 20%. Moreover, the “void fraction increment on incubation” value in series [5] (with LC8, 60 min at 37 °C vs non-incubated complex) is reported as 324%. The molecule also gave an LC8 binding sites in series [6] of 2. The “− TΔS” value in series [7] (ITC, MBP-fused sLCA5 titrated with LC8) was determined as 3.28 kcal/mol.

B2: sLCA5-ΔCQS-ΔVQT: double mutant sLCA5, both LC8 binding motifs mutated (protein)
chain: DTDLVTKRILSARLLKINELQNEVSELQVKLAELLKENKSLKRLQYRQEKALNKFEDAENEISQLIFRHNNEITALKERLRKSQEKERATEKRVKDTESELFRTKFSLQKLKEISEARHLPERDDLAKKLVSAELKLDDTERRIKELSKNLELSTNSFQRQLLAERKRAYEAHDENKVLQKEVQRLYHKLKEKERELDIKNIYSNRLPKSSPNKEKELALRKNAAAAADFADLCTKGAAAMEDFKPEEYPLTPETIMCYENKWEEPGHLTLDLQSQKQDRHGEAGILNPIMEREEKFVTDEELHVVKQEVEKLEDEWEREELDKKQKEKASLLER
modifications: left off: MBP, N-terminal, kept | His6, C-terminal, kept
As to B2, the “interaction with LC8 (GST pull-down)” value in series [2] is “abolished the interaction with LC8”. Also, in series [4], the “melting temperature Tm” value was 40,7 °C and the “increase in melting temperature on LC8 binding” value is “no similar increase was observed”. In series [8], the “LC8 content of fraction” value is listed as “unable to bind LC8”. In addition, the “measurable interaction with LC8 (ITC)” value in series [7] (titrated with LC8, result in words) is “did not show any measurable interaction”.
